Among the data in US20250129150A1 are C1q (Signal Relative to Rituximab) values, retold here.

The assay concerns the target recombinant human C1q (human) (UniProt P02745). In words: SPR, antibody captured on anti-kappa chip, C1q as analyte; signal relative to rituximab.

Sequence of Lebrikizumab (Construct 1) (antibody; other documents disagree on this pair) (heavy): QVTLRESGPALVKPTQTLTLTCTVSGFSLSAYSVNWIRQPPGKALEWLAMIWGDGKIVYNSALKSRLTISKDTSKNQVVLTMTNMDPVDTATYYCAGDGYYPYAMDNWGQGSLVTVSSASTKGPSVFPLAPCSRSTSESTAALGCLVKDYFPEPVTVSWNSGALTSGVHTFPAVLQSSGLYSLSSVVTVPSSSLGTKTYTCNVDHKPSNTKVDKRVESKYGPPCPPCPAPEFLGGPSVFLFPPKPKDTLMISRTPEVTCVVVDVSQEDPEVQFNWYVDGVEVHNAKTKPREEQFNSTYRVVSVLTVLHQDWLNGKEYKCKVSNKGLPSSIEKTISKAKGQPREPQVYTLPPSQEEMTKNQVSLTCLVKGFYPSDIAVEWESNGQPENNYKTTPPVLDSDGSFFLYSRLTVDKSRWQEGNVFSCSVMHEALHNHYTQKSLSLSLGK
Sequence of Lebrikizumab (Construct 1) (antibody; other documents disagree on this pair) (light): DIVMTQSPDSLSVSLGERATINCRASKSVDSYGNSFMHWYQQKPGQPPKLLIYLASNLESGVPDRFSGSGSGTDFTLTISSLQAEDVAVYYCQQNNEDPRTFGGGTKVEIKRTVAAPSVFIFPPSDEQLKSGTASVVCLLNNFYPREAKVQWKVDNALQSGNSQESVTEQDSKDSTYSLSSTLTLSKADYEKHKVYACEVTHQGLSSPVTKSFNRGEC
Sequence of recombinant human C1q (human) (P02745 23-245 limits assumed, chain 1 of 3): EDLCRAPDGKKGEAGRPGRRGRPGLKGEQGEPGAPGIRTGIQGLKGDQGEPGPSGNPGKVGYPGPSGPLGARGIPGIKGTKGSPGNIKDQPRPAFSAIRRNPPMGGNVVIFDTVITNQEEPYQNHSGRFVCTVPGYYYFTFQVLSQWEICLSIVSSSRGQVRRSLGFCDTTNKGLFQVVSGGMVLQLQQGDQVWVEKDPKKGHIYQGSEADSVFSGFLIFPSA
Sequence of recombinant human C1q (human) (P02746 28-253 limits assumed, chain 2 of 3, further chain): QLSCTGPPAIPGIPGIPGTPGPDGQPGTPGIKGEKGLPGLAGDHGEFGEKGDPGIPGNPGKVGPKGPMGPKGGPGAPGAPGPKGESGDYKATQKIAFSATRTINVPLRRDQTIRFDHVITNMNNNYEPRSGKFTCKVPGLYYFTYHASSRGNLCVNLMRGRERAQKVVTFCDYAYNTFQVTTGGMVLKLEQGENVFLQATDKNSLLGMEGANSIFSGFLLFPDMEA
Sequence of recombinant human C1q (human) (P02747 29-245 limits assumed, chain 3 of 3, further chain): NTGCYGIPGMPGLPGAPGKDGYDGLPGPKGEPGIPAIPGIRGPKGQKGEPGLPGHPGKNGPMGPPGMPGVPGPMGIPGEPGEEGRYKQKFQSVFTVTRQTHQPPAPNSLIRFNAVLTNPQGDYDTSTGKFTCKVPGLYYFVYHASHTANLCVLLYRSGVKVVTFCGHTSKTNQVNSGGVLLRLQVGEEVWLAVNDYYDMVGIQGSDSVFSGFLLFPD

On to “Lebrikizumab (Construct 1) (antibody; other documents disagree on this pair)”, for which the C1q (Signal Relative to Rituximab) was determined as 39.6%.
